Measurements: the DeepSol protein solubility set

Experiment: soluble on expression in E. coli; label from the status in PepcDB or PDB records

Sequence | soluble on expression in E. coli
TPVLIRQLANKDRAREFSFLKDLGKDIAHFRFLGSFSTHAKVHDQLMDIDLHNRMAYIALAYDNDELTEIGVARYGAYEGDAHCEFAIAVSEKWQRRGVATALLKRLMETATKEGFSKISSMDASKNLAMDGLATSMGFTCRVDEKHGPRIFHEYVLVQ | not soluble
TQHIESHTHVVSLEEIPVERNLAQLTGWTEGAPVWRLVRQREIEGEVDILDIDYLIKEIVPELPKHRAEDSIFDYLENDLGLAISYAQKEITVEPLTEMDKQLIGEVEGNHVVVVRSIMNLEDTRCFGYTESRHRLNKFKFVEFARRRKL | soluble
TQLHATRQAIVEAGQAIKMDKNGVQKLPVLNIYNEQQKWQKHQLMVENLPLNQVLQELDRNYKGKIIFNDAALQHVRVNAVLPLDQTTESLKLLATVFPDLKIKQIMPFVVMVSLK | not soluble
TQPPQPDAQSPYSKRYDPTKDYPLSSPAGGMNNFSDVEPRGRLDEKAATDRADALAKNAQRNIEQKGIDSPEQYGRNYKQGTPFGERVKNLGEDIGSSANELGEGVVKGTQRGIENLKGNTQNAAEDATKNVQRGAEDAGRNVRRTADDAGNAVKRAVD | not soluble
TSTDAAGGDSYRVGINQLVQHPALDAATTGFKEAFEEAGVDVTFDEQNANGEQGTALTISQQFASDNLDLVLAVATPAAQATAQNITDIPVLFTAVTDAVSAELVDSNEAPGGNVTGTSDIAPIEQQLELLQQLVPDAKSIGIVYASGEVNSQVQVDEVTKAAEPLGLSVNTQTVTTVNEIQQAVEALGDVDVIYVPTDNMVVSGISSLVQVAEQKQIPVIGAESGTVEGGALATLGIDYTELGRQTGEMALRILQDGEDPATMPVETATEFTYVINEDAAERQGVEIPQEILDKAERV | not soluble
TVGCVAVDSHGNLASATSTGGLVNKMVGRIGDTPLIGAGTYANELCAVSATGKGEEIIRATVARDVAALMEFKGLSLKEAADFVIHERTPKGTVGLIAVSAAGEIAMPFNTTGMFRACATEDGYSEIAIWPTT | soluble
TVRVRLAPSPTGNLHIGTARTAVFNWLYARHRGGKFILRIEDTDRERSRPEYTENILEGLQWLGLTWDEGPYFQSDRLDLYRQAIQTLLDKGLAYYCYCTPEELEALRAEQKAKGQAPRYDNRHRHLTPEEQAAFEAAGRTPVIRFKIEDDRQIEWQDLVRGRVSWQGADLGGDMVIARAAPRGEIGYPLYNLVVVVDDIAMGITDVIRGEDHIGNTPKQILLYEALGATPPNFAHTPLILNSTGQKLSKRDGVTSISDFRAMGYLAPALANYMTLLGWSPPEGVGELFTLDLAAKHFSFERINKAGARFDWDKLNWLNRQYIQQLEPEEFLAELIPLWQGAGYAFDEERDRPWLFDLAQLLQPGLNTLREAIDQGAVFFIPSVTFDSEAMAQLGQPQSATILAYLLEHLPAEPALTVAMGQQLIQQAAKAAGVKKGATMRTLRAALTGAVHGPDLMAAWQILHQRGWDEPRLAAALKQAQTTSLEHHHHHH | soluble
VADEYKWALASIYETDDEWEAAFEDVQAELDALNDYEGRLTEDGETLLAALELRDAVYRDAKTVSAYASMRSDEDTRDQEYQALQARGASLMTDVSSATSFFDPELQACTREQLQSMIEETPELAAYEHYFDDVLRMKPHTRSAEVEGLLSELGEVFGAPSDAYNMLTDADLEFPTVEDPAGDAVEISQSN | soluble
VADRYAVYWNSSNPRFQRGDYHIDVCINDYLDVFCPHYEDSVPEDKTERYVLYMVNFDGYSACDHTSKGFKRWECNRPHSPNGPLKFSEKFQLFTPFSLGFEFRPGREYFYISSAIPDNGRRSCLKLKVFVRPTNSCM | soluble
VAKRLDLTDVNIYYGSFHAVADVSLAILPRSVTAFIGPSGCGKTTVLRTLNRMHEVIPGARVEGAVLLDDQDIYAPGIDPVGVRRAIGMVFQRPNPFPAMSIRNNVVAGLKLQGVRNRKVLDDTAESSLRGANLWDEVKDRLDKPGGGLSGGQQQRLCIARAIAVQPDVLLMDEPCSSLDPISTMAIEDLISELKQQYTIVIVTHNMQQAARVSDQTAFFNLEAVGKPGRLVEIASTEKIFSNPNQKATEDYISGRFG | not soluble
VANITFSSPVMAKDVTVYAVAGDRGTILAVAKSHSIPIPFDCQDGECGSCLVQVEHFNPKAKAAVALTEKEKEVLRQLGKITKEEIVDAEVNDIPPRYRLACQCFVRNEDILVKFEGDKTKPQRLAVTPAAAHYKGGMEINTPQEFFSYAAKVEEDAALHYDSLAKAMADAGNAPVAKLFAQLAEFSRLHLAEVKSRAGSIDLSKSVPPDYAWPDHATPERAAVWASDTTLTRLGALKAALQGERRGYEFYRAVEATTKSSEVAAAAKEFVNEEAEHVRILEAWITQEEWSLKHAAKAAENA | not soluble
VDKRESYTKEDLLASGRGELFGAKGPQLPAPNMLMMDRVVKMTETGGNFDKGYVEAELDINPDLWFFGCHFIGDPVMPGCLGLDAMWQLVGFYLGWLGGEGKGRALGVGEVKFTGQVLPTAKKVTYRIHFKRIVNRRLIMGLADGEVLVDGRLIYTASDLKVGLFQDTSAF | soluble
VEPVDPCFRANCEYQCQPLNQTSYLCVCAEGFAPIPHEPHRCQLFCNQTACPADCDPNTQASCECPEGYILDDGFICTDIDECENGGFCSGVCHNLPGTFECICGPDSALAGQIGTDCDSG | soluble
VFILPDCNPVLKFISSARERLLIIAPYIDFRWYKDDGLLEAIKGAKESGAEVKVVLNAKYAKEEAVSTLRKEGVKVELIDNLHGKAIVSDKRLLITSANMNMHGLKLNREIGVIINNPEMADAVIKEFEGGEVTPLD | not soluble
VIEPARGLGDGNIERKIRGLLDSWMTWNHSFQGSCMFLDAWNDAADKNCPLQAALRKAIDTWLSYLEIQIAKGKENQEFISDLDTRQATFDLYGQYLSAHVFYSIKGEEESLRLFWQGIDNLLARWRG | not soluble
VIIPDINLLLYAVITGFPQHRRAHAWWQDTVNGHTRIGLTYPALFGFLRIATSARVLAAPLPTADAIAYVREWLSQPNVDLLTAGPRHLDIALGLLDKLGTASHLTTDVQLAAYGIEYDAEIHSSDTDFARFADLKWTDPLRE | not soluble
VIRRSSLSSTESEIRMDATTVSTTDDIWSPSWDDPFEPTTDHDDEFAELTDALRAVQEAVTRSRPTPEAAGRAARTLRDLAARLAAFEVGEDEQISGRRWDLAGRGQTLTPALHLDEVTENRARGHVVVGRFHSGRYAMNGGVTPLIFDEILARLANSCGRPWARTAYLHVNYRAPAPLDVELRVEAEFAGQDGRKRFMRGAMYHGDVLVADVEGLWIELKPEQTQNVSLAVGWGAEENS | not soluble
VKIDNKTFQVNGRVLLDDLTEEFGIEFDDSEDIDTIGGWLQSRNTNLQKDDYVDTTYDRWVVSEIDNHQIIWVILNYEFNEARPTIGQSDEDEKSE | not soluble
VKKIKDIGEVAGGSTPSTKIKEYWGGDIPWITPKDLANYEYIYISRGERNITEKAVKECSLRIFPKGTILLTSRAPIGYVAIAKNPLTTNQGFRNIIPKDGVVSEYLYYLFKTKTMSEYLKDISGGSTFPELKGSTLKEVEIPYPSPEEQQKIATVLSYFDD | not soluble
VLIARRPEDKHQGGLWEFPGGKVEDGEPVRAALARELEEELGIRVERARPLIQVRHDYADKHVLLDVWEVDGFSGEAHGAEGQPLAWVEPRELADYEFPAANAPIVQAARLPAHYLITPDGLEPGELISGVRKAVEAGIRLIQLRAPNMFSPEYRDLAIDIQGLCAGKAQLMLKGPLEWLGDFPAAGWHLTSAQLRKYASAGRPFPEGRLLAASCHDAEELALAASMGVEFVTLSPVQPTESHPGEPALGWDKAAELIAGFNQPVYLLGGLGPQQAEQAWEHGAQGVAGIRAFWPGGL | not soluble
VQLLESGPGVVKPSETLSLTCTVSGASVNNYYWTWVRQPPGKGLEWIGNVYDSGDTNYNPSLSSRLSLSMDTSKNQFSLRLSSVTAADTATYYCARYHRHFIRGPLSFDYWGRGTLVTVSSASTKGPSVFPLAPSSKSTSGGTSALGCLVKDYFPEPVTVSWNSGALTSGVHTFPAVLQSSGLYSLSSVVTVPSSSLGTQTYICNVNHKPSNTKVDKKVEPKSCDKTS | soluble
VSAPTKPHSPTFKPEPHSAANEPKHPAARPKHVALQQLTGAQAVIRSLEELGVDVIFGIPGGAVLPVYDPLFDSKKLRHVLVRHEQGAGHAASGYAHVTGRVGVCMATSGPGATNLVTPLADAQMDSIPVVAITGQVGRGLIGTDAFQEADISGITMPITKHNFLVRSGDDIPRVLAEAFHIAASGRPGAVLVDIPKDVLQGQCTFSWPPRMELPGYKPNTKPHSRQVREAAKLIAAARKPVLYVGGGVIRGEATEQLRELAELTGIPVVTTLMARGAFPDSHRQNLGMPGMHGTVAAVAALQRSDLLIALGTRFDDRVTGKLDSFAPEAKVIHADIDPAEIGKNRHADVPIVGDVKAVITELIAMLRHHHIPGTIEMADWWAYLNGVRKTYPLSYGPQSDGSLSPEYVIEKLGEIAGPDAVFVAGVGQHQMWAAQFIRYEKPRSWLNSGGLGTMGFAIPAAMGAKIALPGTEVWAIDGDGCFQMTNQELATCAVEGIPVKVALINNGNLGMVRQWQSLFYAERYSQTDLATHSHRIPDFVKLAEALGCVGLRCEREEDVVDVINQARAINDCPVVIDFIVGADAQVWPMVAAGTSNDEIQAARGIRPLFDDITEGHA | not soluble
VSEEELKLILAGAEESGAIEPQEEEMIHSILELEETPVREIMTPRVEMVAIEDEATLEDLLALYREHRYSRVPVYRESVDHIVGVAYVQDLLTYYCEEDLKAFKVASIAHPPYFVPENMDAWSLLKELRRRKVHMAIVVDEFGGTAGLVTLEDVIEEIVGEI | not soluble
VSGAHTDVRPELRKLAQAILDGIDPAVRVAAAMASGGGPGTGKCQQVWCPLCALAALVTGEQHPLLTVIADHSLALLEVIRAIVDDIDRSAKPPPEGPPGGGQTGASGGENTNGEGSMKSHYQAIPVTIEE | not soluble
VSLEDYNLSEDLKVRLDSAEGIFVSGAPGSGKSTFVSALAERYKNMDKIVKTMESPRDLQVDEEITQYAPLEGSMEKTCDILLLVRPDYTIYDEVRKTKDFEIFADMRMAGVGMVGVVHASKAIDSIQRLIGRVELGIIPQIVDTVVFIENGKIGKVYEVEFNVKVPH | not soluble
VTNVSWLVTGSMSALSIPGLIFSLRSSHPNLNFTPYLTQSASRIVTMTSMATLSGVTPRNSDWGSEPEATPSHIQIESESDAYLIAPATLDFLARFARYDCSTPFSLALQCTKKPILVAPS | not soluble
VTTRQEKAAQTRRDLLDAARVVFERNGYLNATITDITTEAGKAAGSFYNHFDGKEALLLALADDIGDDADALITTSPDDLRNLGPHLAVFWQLQSRHRPVMAALRDAALVDPEFAQRMHDFGI | not soluble
VTYNLEKRPTTIVLINDTPLNVLLDTGADTSVLTTAHYNRLKYRGRKYQGTGIGGVGGNVETFSTPVTIKKKGRHIKTRMLVADIPVTILGRDILQDLGAKLVL | soluble
VVRVGRRSATFYPPEGAAALIGDFTDWERNPIPLEGPLTLEFPEGAYVEYAFLDREGRPFPDPDNPEKAENPWWSYPRAIKLPGFRYEAPPAPKEEPKVHRHRLGERRFYVAETGPSPKATVVAQDGVAFYRTAGLHKVARALFEAGEIPPVRLVFVEPIDRNTEYRFNEAYEAEFHRVLEEVEGAYGPLNELVLVGASLGGLFSLWQAWRHPERFPKVLALSPALKAHPGGKDAYRDEEWLLARYAEARRLPRVYVEVGLLEWLLGPNRRLAALFADKKVPHAYRERPSGHNWVTWKQALAPGLRYLLGPQ | soluble
WNRRTEQLTDGLGAQIDPDSMTPASPADIDTLTAWRQGKIIFKDQPLASVVKEMNRYLPQPITITDHRLDQVRIAGVFNTGDSAAFLQALHKSIPVQVILHADGSTELSLPR | not soluble
